Experimental data published in paper PMC6355189, “A structural model of the immune checkpoint CD160–HVEM complex derived from HDX-mass spectrometry and molecular modeling” (Oncotarget, 2019).
Ends that are not written are not given here.

T1: Human HVEM-Fc protein (human, UniProt Q92956 39-202)
T1 construct: herpes virus entry mediator (HVEM), human, as Fc fusion, bought; Detected by goat anti-human IgG(H+L)-HRP; source: bought: ACROBiosystems, USA (#HVM-H5258)
T1 sequence (looked up): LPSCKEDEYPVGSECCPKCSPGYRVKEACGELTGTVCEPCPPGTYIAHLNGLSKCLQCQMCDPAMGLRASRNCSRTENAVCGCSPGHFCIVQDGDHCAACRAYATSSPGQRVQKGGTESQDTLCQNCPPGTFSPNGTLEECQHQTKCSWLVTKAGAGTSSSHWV

T2: Recombinant human protein HVEM with His Tag (human, UniProt Q92956 39-202)
T2 construct: herpes virus entry mediator (HVEM), human, recombinant, bought; also called HVEM protein; herpes virus entry mediator; source: bought: Sino Biological Inc., China (#10334-H08H)
T2 sequence (looked up): T1 sequence (looked up)

B1: CD160(61–80) peptide elongated by five glycine residues and biotin (peptide)
peptide: GVGEISSQLMFTISQVTPLH
modifications: also: elongated by five glycine residues and biotin, end not given here
notes: CD160, human, residues 61-80; source: synthetic peptide
B2: CD160 (61–80) (peptide)
peptide: Ac-GVGEISSQLMFTISQVTPLH-NH2
notes: as for B1

What was measured:
[1] = target: T1, Human HVEM-Fc protein; experiment: ELISA; biotinylated peptides or biotinylated CD160 (1 μg/ml) on a streptavidin microplate; HVEM-Fc at 20, 10 and 5 μg/ml, 1 hour at 25°C; PBS-T (5 mM Na2HPO4, 150 mM NaCl with addition of 0.3 M NaCl and 0.05% Tween-20, pH 7.4); detection by goat antihuman IgG(H+L)–HRP; details: both partners purified
[2] = target: T2, Recombinant human protein HVEM with His …; experiment: microcolumn affinity test with mass spectrometry; HVEM protein immobilised in a microcolumn; peptide applied; supernatant, last wash and elution analysed by mass spectrometry; details: both partners purified

Row | Binder | binding result [1] | binding result [2]
1 | B1 | binds | –
2 | B2 | – | binds
